For assay [1], the target named is T1, IL-1R1 (Mus musculus, UniProt P13504).
T1 construct: from tissue; host or cells: living Balb/c mice (lung / systemic), read-out BAL cell counts
T1 sequence (P13504 20-576): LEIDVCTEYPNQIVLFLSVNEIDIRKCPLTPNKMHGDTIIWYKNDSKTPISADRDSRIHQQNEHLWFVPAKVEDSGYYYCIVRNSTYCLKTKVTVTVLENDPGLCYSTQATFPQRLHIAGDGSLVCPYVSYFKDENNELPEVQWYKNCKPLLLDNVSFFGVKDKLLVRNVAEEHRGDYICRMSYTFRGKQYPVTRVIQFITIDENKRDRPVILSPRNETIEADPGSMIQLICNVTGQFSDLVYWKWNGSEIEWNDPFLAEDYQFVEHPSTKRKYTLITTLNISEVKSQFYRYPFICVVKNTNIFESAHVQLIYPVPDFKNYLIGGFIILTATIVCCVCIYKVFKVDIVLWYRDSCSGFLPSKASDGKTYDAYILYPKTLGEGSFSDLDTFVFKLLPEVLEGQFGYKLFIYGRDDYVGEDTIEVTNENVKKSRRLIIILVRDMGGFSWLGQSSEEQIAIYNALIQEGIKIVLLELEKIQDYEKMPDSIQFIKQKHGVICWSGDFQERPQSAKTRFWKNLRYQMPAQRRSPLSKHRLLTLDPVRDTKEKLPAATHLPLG
Description: Inhaled LPS model of acute lung inflammation (BAL cells). Type of assay: in vivo. The settings on record: Balb/c mice; anakinra by ALZET osmotic pump from 48 hours before inhaled LPS; BAL 48 hours after challenge; vs control LPS treated mice; P<0.001. The text has this:
Lipopolysaccharide (LPS) is a component of bacterial cell walls of gram negative bacteria. […] The effect of an IL-1R1 antagonist, anakinra, was examined in a mouse model of LPS mediated inflammatory cell influx into the lung. Anakinra inhibited LPS mediated inflammatory cell influx as measured by BAL total cells into the lung by 47% compared to control LPS treated mice (P<0.001) (FIG. 7).
Anakinra was delivered using an ALZET osmotic pump as described for acute smoke model, and was also administered to the mice 48 hours before the LPS administration. Mice were adult female Balb/c mice.
The mice were placed in a semi-open exposure inhalation box (max 10 mice) and were exposed once to aerosolised LPS—total inhalation session time 12 minutes. P. aeriginosa LPS was used at a concentration of 5 mg/ml and was aerosolised using a nebuliser (such as a PariStar Jet Star nebuliser), filled with 5 ml volume and flow from the nebuliser was 5 l/min (Pressure=2 bar). The control groups received the same procedure but with PBS. […] The BAL was then centrifuged—the cell pellet was analysed using standard automated cell counting and differential cell counting. […] The significance of differences between groups was calculated using Student's T test with one-tailed distribution and two-sample unequal variance. […]

Assay [2] concerns the target T2, IL-1R (Homo sapiens, UniProt P14778).
T2 sequence (P14778 18-569): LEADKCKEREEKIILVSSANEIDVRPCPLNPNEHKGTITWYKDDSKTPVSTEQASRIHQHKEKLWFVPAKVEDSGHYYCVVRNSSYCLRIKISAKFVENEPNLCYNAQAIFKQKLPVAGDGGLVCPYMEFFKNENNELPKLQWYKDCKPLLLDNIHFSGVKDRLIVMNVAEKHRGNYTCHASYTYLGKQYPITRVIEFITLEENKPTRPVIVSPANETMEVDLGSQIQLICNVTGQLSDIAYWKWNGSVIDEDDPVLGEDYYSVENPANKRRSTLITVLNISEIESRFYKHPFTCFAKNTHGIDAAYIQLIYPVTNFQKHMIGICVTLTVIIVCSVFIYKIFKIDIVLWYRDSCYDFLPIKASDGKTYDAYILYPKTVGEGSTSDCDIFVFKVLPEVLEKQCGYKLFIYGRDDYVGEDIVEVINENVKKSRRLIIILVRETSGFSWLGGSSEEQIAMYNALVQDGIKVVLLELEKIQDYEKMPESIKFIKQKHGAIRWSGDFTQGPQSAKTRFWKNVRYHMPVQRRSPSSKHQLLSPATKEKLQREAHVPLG
Put plainly: Smoke conditioned medium induced IL-8 release in BEAS-2B cells. It counts as cell-based. Particulars: 20% smoked medium, 24 hours. The protocol:
(§1) The inflammatory response of epithelial cell in vitro was measured in response to smoke conditioned medium, or smoke conditioned medium and virus. The smoke conditioned medium was generated by bubbling cigarette smoke through tissue culture (TC) medium, and is referred to later in this example as ‘smoke’ or ‘smoke treatment’ of the cells. One cigarette with the filter removed bubbled through 25 mL medium is equal to 100% smoked medium. Cigarette smoke treated medium was titrated for IL-8 release and cell confluence on BEAS-2b cells. 20% smoked medium was used for all experiments as it induced pro-inflammatory cytokine release without significant cell death.
(§2) To examine the role of IL-1R in smoke and virus induced inflammation, cells were first smoke treated with a pre-treatment of IL-1R antagonist, and then as required, infected with HRV virus with another pre-treatment of IL-1R antagonist, anakinra. (FIGS. 10A and 10C).
(§3) A lit cigarette (no filter) was connected by tubing to a falcon tube (50 ml capacity) containing tissue culture medium which was supported in a glass flask. A peristaltic pump drew the smoke through the tubing and into the tissue culture medium. The waste smoke was drawn into a beaker of detergent. The whole procedure was performed within a fume cupboard to protect the operator and other users of the lab. The procedure was therefore not sterile. […]

The target of assay [3] is T2, IL-1R. Put plainly: Smoke plus HRV virus induced IL-8 release in BEAS-2B cells. It counts as cell-based. Particulars: 20% smoked medium then HRV, different anakinra concentrations. Here is the method: as §1, §2, §3
The target of assay [4] is T1, IL-1R1. Description: IL-1beta-induced neutrophil mediated inflammation in the mouse lung (BAL). It counts as in vivo. The settings on record: Balb/c mice; anakinra subcutaneously 1 hour before IL-1beta 5 ng/50 μl intratracheally; BAL after 4 hours; vs control IL-1 treated animals. Here is the method:
As noted above, the effect of IL-1R1 antagonist treatment on an IL-1beta-induced neutrophil mediated inflammation in the mouse lung was also examined (FIG. 1B). Anakinra (KINERET™) was dosed subcutaneously one hour before a treatment of IL-1beta of 5 ng/50 μl. After four hours, cell counts were obtained by BAL. Anakinra reduced the cell count by 71% compared to control IL-1 treated animals.
Mice were adult Balb/c females. Anakinra was dosed subcutaneously one hour before IL-1beta was administered intratracheally to the mouse lung using a dose of 5 ng in 50 ul. After 4 hours, the lungs of the mouse were lavaged, essentially as for the acute smoke model (example 2), and total cells and differential cell counts performed.

Assay [5] has as its target T1, IL-1R1. Put plainly: Acute tobacco smoke model of lung inflammation (BAL cells). Particulars: Balb/c mice; smoke twice daily; BAL day 5; 35F5/MAB005 15 mg/kg i.p. once daily; anakinra 48 mg/kg/day s.c. by ALZET pump. Type of assay: in vivo. The text has this: The antibody 35F5 is a monoclonal antibody which binds to mouse IL-1R1 and prevents the binding of both IL-1beta and IL-1alpha to the receptor IL-1R1Anakinra antagonises the effects of both IL-1beta and IL-1alpha. […] The data shown in this example confirms that inhibition of IL-1R1 by 35F5 decreases inflammation in an acute model of murine lung inflammation, induced by a stimulus relevant to COPD such as smoke. This is consistent with previous observations in the public domain, and with other studies using IL-1Ra (anakinra; IL-1 receptor antagonist). In this mouse model, cigarette smoke causes significant increases in neutrophil BAL cell numbers after 4 days of smoke inhalation. To investigate the effects of IL-1R1 pathway inhibition on the acute inflammatory response to cigarette smoke inhalation, Balb/c mice were exposed to cigarette smoke twice daily (for 50 minutes) […] and dosed intraperitoneally once daily with either 35F5, isotype control rat IgG1 (MAB005), or saline, starting 48 hours before the first smoke exposure and continuing for 4 days. On Day 5, animals were terminated and BAL was performed. An additional treatment arm was included in which animals were exposed to cigarette smoke as above but dosed sub-cutaneously (SC) continuously with anakinra using infusion pumps (ALZET) starting dosing 48 hours prior to the first smoke exposure. […]

Assay [6] concerns the target T3, IL-1R1 (Homo sapiens, UniProt P14778).
T3 sequence (P14778 18-569): T2 sequence (P14778 18-569)
Description: HRV14-induced IL-8 release in BEAS-2b/H292 epithelial cells. Particulars: BEAS-2b/H292 cells; PEG purified HRV14; anakinra 25 nM (FIG. 8B).
Description: To investigate the role of IL-1 in human rhinovirus (HRV)-mediated inflammatory response, PEG purified HRV14 was used to infect BEAS-2b/H292 cells (human cells available from the ATCC) while those cells were being exposed to an IL-1R antagonist (FIG. 8A). […] A prototypic inflammatory mediator IL-8 (CXCL-1) was examined after treatment and HRV14 infection of the cells (FIG. 8). […] The concentration of anakinra used on the cells was 25 nM.
Cells used for epithelial smoke and virus work were BEAS-2B cells obtained from ATCC (catalogue number CRL-9609) and grown as per suppliers instructions, or H292s from ECACC (catalogue no 91091815 NCI-H292) also grown according to suppliers instructions. […]
Cells were seeded onto collagen coated flat clear bottomed plates and were incubated at 37° C. […] Anakinra or media was replaced onto cells in 100 ul and the virus was added 30 minutes later at a dilution determined by titres of virus stock on HeLa OHIO cells to determine equivalent activity for each batch made in an additional 100 ul . […]
IL-8 was measured in supernatants using ELISA kit (R&D Systems Duoset DY208) according to manufacturer's instructions and using R&D recombinant protein as standards for the assays.

Turning to anakinra, in assay [1], the “inhibition of LPS mediated inflammatory cell influx (BAL total cells)” value is 47%. Further, the entries for the “smoke-induced IL-8 response” value in assay [2] and in assay [2] (listed as Anakinra) were “dose dependent effect” and “partial inhibition”, respectively. Moreover, in assay [3], the “combined smoke and virus IL-8 response” value was “Concentration dependent and complete inhibition”. Further, in assay [4], the “inhibition of IL-1beta-induced increase of neutrophils / cell count in BAL” value turned out to be 71%. Further, the “tobacco smoke-induced acute inflammatory cell infiltration in BAL” value in assay [5] was “significantly inhibited”. For the same substance, the “IL-8 levels after HRV14 infection” value in assay [6] is reported as “reduced”.

Values taken from patent publication US20130149312A1, “COMPOSITIONS AND METHODS FOR TREATING COPD EXACERBATION” (MCMASTER UNIVERSITY, priority 2010, published 2013).
